The record followed here is patent US20250313611A1.

Experiment [1] has as its target recombinant human FcRn/FCGRT-B2M heterodimer protein (human) (UniProt P55899). The experiment is described as follows: SPR, steady state affinity, pH 6.0.
The target is the same in experiment [2]. The experiment is described as follows: SPR Biacore 8K+, antibody on CM5 chip, FcRn in solution, pH 6.0. (In general: SPR reads the build-up and loss of mass on a sensor chip optically.)
The target in experiment [3] is SARS-COV-2 RBD (His-tagged, Sinobiologicals) (SARS-CoV-2 (Wuhan)) (UniProt P0DTC2). The experiment in a line: ELISA, coated antigen, dilution series, OD450 [3/3]. (In an ELISA, binding on a coated surface is turned into a signal by an enzyme label.)
Experiment [4] has as its target recombinant stabilized SARS-COV-1 Spike protein ([change], with foldon) (SARS-CoV-1) (UniProt P59594). The description is as above.
The target of experiment [5] is recombinant prefusion-stabilized SARS-COV-2 spike protein S-6P (SARS-CoV-2 (Wuhan)) (UniProt P0DTC2). The description is as above.

Chain of recombinant human FcRn/FCGRT-B2M heterodimer protein (human) (P55899 24-297 limits assumed, chain 1 of 2): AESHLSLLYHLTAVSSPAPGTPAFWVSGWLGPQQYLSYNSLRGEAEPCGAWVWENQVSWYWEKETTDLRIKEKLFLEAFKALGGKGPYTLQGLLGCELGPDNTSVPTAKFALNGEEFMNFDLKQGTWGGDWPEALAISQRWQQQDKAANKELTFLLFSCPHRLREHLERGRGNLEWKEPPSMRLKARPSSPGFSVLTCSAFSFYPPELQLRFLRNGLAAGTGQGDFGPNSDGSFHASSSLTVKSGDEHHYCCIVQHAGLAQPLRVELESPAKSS
Chain of recombinant human FcRn/FCGRT-B2M heterodimer protein (human) (P61769 21-119 limits assumed, chain 2 of 2, further chain): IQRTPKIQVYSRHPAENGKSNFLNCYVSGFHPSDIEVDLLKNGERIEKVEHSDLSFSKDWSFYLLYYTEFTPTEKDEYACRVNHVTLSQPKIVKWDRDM

As usually defined, the Kd is a measure of binding affinity in units of concentration. Regarding “Bebtelovimab Biosimilar (PX-TA1750) (antibody)”, the Kd in experiment [1] was 19.4 nM. In experiment [2], the RUmax (steady state affinity, pH 6.0) was determined as 57.1 RU.

As usually defined, the EC50 (read off the curve) is the concentration giving half of the maximal effect. As to S309 monoclonal antibody, the results for the EC50 (read off the curve) in experiment [3], in experiment [4] and in experiment [5] were 0.1 µg/mL, 0.04 µg/mL and 0.09 µg/mL, respectively.

Take human IgG1 isotype control antibody: in experiment [1], the Kd came out at 15 nM. Moreover, the RUmax (steady state affinity, pH 6.0) in experiment [2] came out at 37.5 RU.
